# Results from article PMC5510004, “Recruitment and positioning determine the specific role of the XPF‐ERCC1 endonuclease in interstrand crosslink repair”.
# T1: XPF deltaNSGW;ERCC1 wild type (hsERCC1) (Xenopus laevis;Homo sapiens?, UniProt A0A8J0PXV9;P07992 1-897;1-297, del312-315|)
# T1 sequence 1: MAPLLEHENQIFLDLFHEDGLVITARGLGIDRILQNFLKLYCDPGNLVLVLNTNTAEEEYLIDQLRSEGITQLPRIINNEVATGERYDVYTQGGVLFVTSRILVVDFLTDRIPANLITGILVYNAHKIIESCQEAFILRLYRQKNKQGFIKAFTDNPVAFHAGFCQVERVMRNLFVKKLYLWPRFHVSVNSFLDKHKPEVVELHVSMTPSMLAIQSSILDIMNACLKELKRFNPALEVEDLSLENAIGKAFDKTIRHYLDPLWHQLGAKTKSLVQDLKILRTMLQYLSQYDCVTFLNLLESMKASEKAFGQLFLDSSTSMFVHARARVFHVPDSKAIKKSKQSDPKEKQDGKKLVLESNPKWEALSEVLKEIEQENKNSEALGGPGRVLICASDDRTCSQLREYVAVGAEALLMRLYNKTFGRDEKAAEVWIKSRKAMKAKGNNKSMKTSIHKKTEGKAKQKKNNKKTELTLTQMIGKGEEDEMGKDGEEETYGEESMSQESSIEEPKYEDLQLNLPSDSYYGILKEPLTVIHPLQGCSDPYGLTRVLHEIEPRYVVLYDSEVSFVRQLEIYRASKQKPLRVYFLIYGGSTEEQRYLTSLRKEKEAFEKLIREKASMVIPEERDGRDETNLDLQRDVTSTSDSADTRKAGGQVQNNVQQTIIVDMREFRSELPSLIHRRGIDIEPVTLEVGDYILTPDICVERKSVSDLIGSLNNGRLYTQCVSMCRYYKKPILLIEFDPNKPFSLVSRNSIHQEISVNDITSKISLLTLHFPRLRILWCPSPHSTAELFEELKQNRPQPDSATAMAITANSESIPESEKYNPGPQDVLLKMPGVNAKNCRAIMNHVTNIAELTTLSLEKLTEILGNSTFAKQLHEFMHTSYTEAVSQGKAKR
# T1 sequence 2: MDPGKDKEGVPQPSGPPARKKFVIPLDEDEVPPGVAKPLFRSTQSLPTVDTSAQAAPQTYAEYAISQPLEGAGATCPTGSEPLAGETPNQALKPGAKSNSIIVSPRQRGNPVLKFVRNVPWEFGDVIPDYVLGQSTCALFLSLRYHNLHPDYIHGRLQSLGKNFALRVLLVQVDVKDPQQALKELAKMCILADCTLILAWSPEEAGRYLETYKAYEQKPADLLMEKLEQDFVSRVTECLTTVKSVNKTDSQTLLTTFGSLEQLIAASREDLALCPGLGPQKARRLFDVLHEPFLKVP
# T2: XPF R670S;ERCC1 wild type (hsERCC1) (Xenopus laevis;Homo sapiens?, UniProt A0A8J0PXV9;P07992 1-897;1-297, R670S|)
# T2 sequence 1: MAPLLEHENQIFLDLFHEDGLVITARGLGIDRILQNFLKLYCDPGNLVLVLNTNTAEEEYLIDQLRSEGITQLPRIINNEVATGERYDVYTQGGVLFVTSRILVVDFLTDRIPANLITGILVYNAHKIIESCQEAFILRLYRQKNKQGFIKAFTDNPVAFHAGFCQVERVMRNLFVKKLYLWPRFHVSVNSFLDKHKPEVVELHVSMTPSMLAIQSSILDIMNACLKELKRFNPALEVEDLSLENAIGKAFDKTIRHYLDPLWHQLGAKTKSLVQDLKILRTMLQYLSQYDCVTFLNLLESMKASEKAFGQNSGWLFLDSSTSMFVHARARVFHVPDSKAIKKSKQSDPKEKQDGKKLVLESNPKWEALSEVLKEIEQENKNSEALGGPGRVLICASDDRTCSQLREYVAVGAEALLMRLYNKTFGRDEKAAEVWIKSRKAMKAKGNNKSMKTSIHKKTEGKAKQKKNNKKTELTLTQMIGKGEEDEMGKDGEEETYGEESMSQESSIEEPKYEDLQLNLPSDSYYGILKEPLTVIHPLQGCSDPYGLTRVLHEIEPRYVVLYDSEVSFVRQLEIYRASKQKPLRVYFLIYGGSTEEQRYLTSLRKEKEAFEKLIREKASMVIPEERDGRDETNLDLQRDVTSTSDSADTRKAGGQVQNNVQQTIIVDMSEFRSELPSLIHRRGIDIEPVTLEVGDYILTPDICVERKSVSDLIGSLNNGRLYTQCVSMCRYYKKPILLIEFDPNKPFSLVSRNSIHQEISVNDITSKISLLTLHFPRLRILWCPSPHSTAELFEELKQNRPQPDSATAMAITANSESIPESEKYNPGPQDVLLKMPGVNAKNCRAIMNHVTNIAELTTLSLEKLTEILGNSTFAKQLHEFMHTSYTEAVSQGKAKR
# T2 sequence 2: T1 sequence 2
# B1: 3' flap DNA substrate (F1+F2+F3) (dsDNA)
# DNA 1: CGCGATGCGGATCCAA
# DNA 2: CCTAGACTTAAGAGGCCAGACTTGGATCCGCATCGC
# DNA 3: GGCCTCTTAAGTCTAGG
# Experiments:
# [1] = target: T1, XPF deltaNSGW;ERCC1 wild type (hsERCC1); experiment: fluorescence anisotropy; 2 mM Ca2+; comparable to wild type; 25 mM Hepes pH 8.0, 15% glycerol, 0.1 mg/ml BSA, 2 mM CaCl2, 10 nM DNA, 1 h at room temperature; conditions: protein: recombinant;recombinant; tags: FLAG;His; copies: 1;1; label: 5'-FAM on F1; three strands 1:1:1
# [2] = target: T2, XPF R670S;ERCC1 wild type (hsERCC1); experiment: as above; conditions: protein: recombinant;recombinant; tags: FLAG;His; copies: 1;1; label: 5'-FAM on F1; three strands 1:1:1
binder,measurement,setting,value
B1,binding result,[1],binds
same,binding result,[2],binds
